From article PMC2111872

B1: chicken erythrocyte histone H5 (natural protein)
chain: MTESLVLSPAPAKPKRVKASRRSASHPTYSEMIAAAIRAEKSRGGSSRQSIQKYIKSHYKVGHNADLQIKLSIRRLLAAGVLKQTKGVGASGSFRLAKSDKAKRSPGKKKKAVRRSTSPKKAARPRKARSPAKKPKATARKARKKSRASPKKAKKPKTVKAKSRKASKAKKVKRSKPRAKSGARKSPKKK

The molecules below were run against H1- and H5-depleted chicken erythrocyte chromatin (DNA-core histone complex) (chicken (endogenous in erythrocytes)) (assay: co-sedimentation).

Stoichiometry N (linker histone molecules per nucleosome), 2:
calf thymus histone H1 (from UniProt P02253 1-213) (natural protein)
chicken erythrocyte histone H1 (from UniProt P09987 1-218) (natural protein)
B1
